# Data from the supplement of paper PMC9112550, “Optimization of the antimicrobial peptide Bac7 by deep mutational scanning” (BMC Biology, 2022).
# Tested on: Escherichia coli TOP10
# Experiment: shrunken log2 fold change of peptide-encoding DNA abundance (4.5 h post-induction vs induction); higher = less antimicrobial activity (less host growth inhibition)
# Details: time post-induction: 4.5 h; library: site-saturation at positions 5, 18, 19, 20
# 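Note: peptides expressed intracellularly from a pBAD plasmid library in pooled LB shake-flask culture, induced with 0.3% L-arabinose, DNA abundance read by NGS, three biological replicates, DESeq2 with apeglm shrinkage.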
row,Sequence,shrunken log2 fold change
1,RRIRRRPPRLPRPRPRPAVSPRP,-0.136
2,RRIRWRPPRLPRPRPRPACEPRP,0.11
3,RRIRKRPPRLPRPRPRPEYYPRP,-0.053
4,RRIRCRPPRLPRPRPRPQHQPRP,-0.145
5,RRIRPRPPRLPRPRPRPFRTPRP,-0.362
6,RRIRVRPPRLPRPRPRPQVMPRP,-0.112
7,RRIRQRPPRLPRPRPRPNTYPRP,-1.07
8,RRIRSRPPRLPRPRPRPLYEPRP,-0.438
9,RRIRKRPPRLPRPRPRPCLMPRP,-0.0503
10,RRIRYRPPRLPRPRPRPHMGPRP,3.73
11,RRIRCRPPRLPRPRPRPKAVPRP,0.564
12,RRIRWRPPRLPRPRPRPPNLPRP,-0.24
13,RRIRIRPPRLPRPRPRPIFFPRP,-0.123
14,RRIRYRPPRLPRPRPRPVTYPRP,-0.41
15,RRIRNRPPRLPRPRPRPYFNPRP,-1.51
16,RRIRTRPPRLPRPRPRPPIAPRP,0.328
17,RRIRARPPRLPRPRPRPHTIPRP,-0.734
18,RRIRTRPPRLPRPRPRPFMQPRP,-0.0497
19,RRIRTRPPRLPRPRPRPHKKPRP,0.0809
20,RRIRNRPPRLPRPRPRPWRFPRP,-0.0929
21,RRIRLRPPRLPRPRPRPRWRPRP,0.463
22,RRIRCRPPRLPRPRPRPNGKPRP,-0.8
23,RRIRRRPPRLPRPRPRPCYHPRP,-0.169
24,RRIRKRPPRLPRPRPRPSINPRP,0.0278
25,RRIRVRPPRLPRPRPRPQANPRP,0.0748

row,Sequence,shrunken log2 fold change
1,RRIRSRPPRLPRPRPRPWWYPRP,-0.0611
2,RRIRCRPPRLPRPRPRPATAPRP,0.41
3,RRIRGRPPRLPRPRPRPWYWPRP,0.187
4,RRIRIRPPRLPRPRPRPICLPRP,-0.197
5,RRIRDRPPRLPRPRPRPFSWPRP,0.198
6,RRIRMRPPRLPRPRPRPQHSPRP,-0.183
7,RRIRERPPRLPRPRPRPIKDPRP,-0.168
8,RRIRMRPPRLPRPRPRPAHFPRP,0.152
9,RRIRDRPPRLPRPRPRPHLIPRP,-0.0328
10,RRIRCRPPRLPRPRPRPDPKPRP,0.0617
11,RRIRIRPPRLPRPRPRPTERPRP,-0.0197
12,RRIRTRPPRLPRPRPRPTDHPRP,-0.283
13,RRIRRRPPRLPRPRPRPELQPRP,0.212
14,RRIRTRPPRLPRPRPRPCGEPRP,-0.23
15,RRIRNRPPRLPRPRPRPECRPRP,0.263
16,RRIRNRPPRLPRPRPRPWPQPRP,-0.064
17,RRIRQRPPRLPRPRPRPPIQPRP,-0.164
18,RRIRYRPPRLPRPRPRPLHEPRP,-0.343
19,RRIRERPPRLPRPRPRPRPKPRP,0.194
20,RRIRDRPPRLPRPRPRPNLMPRP,0.0913
21,RRIRQRPPRLPRPRPRPEWQPRP,0.00709
22,RRIRFRPPRLPRPRPRPHTLPRP,-0.62
23,RRIRKRPPRLPRPRPRPEICPRP,0.661
24,RRIRTRPPRLPRPRPRPEWRPRP,0.338
25,RRIRWRPPRLPRPRPRPHHYPRP,-0.952

row,Sequence,shrunken log2 fold change
1,RRIRQRPPRLPRPRPRPFISPRP,-0.0195
2,RRIRHRPPRLPRPRPRPVDWPRP,0.15
3,RRIRIRPPRLPRPRPRPEEYPRP,-0.0228
4,RRIRWRPPRLPRPRPRPFCMPRP,-0.218
5,RRIRIRPPRLPRPRPRPAMNPRP,-0.495
6,RRIRYRPPRLPRPRPRPWATPRP,-0.379
7,RRIRWRPPRLPRPRPRPIHLPRP,-0.0188
8,RRIRTRPPRLPRPRPRPKHNPRP,-0.362
9,RRIRLRPPRLPRPRPRPARHPRP,0.148
10,RRIRSRPPRLPRPRPRPYRPPRP,-0.365
11,RRIRTRPPRLPRPRPRPNHFPRP,-0.316
12,RRIRWRPPRLPRPRPRPGKWPRP,0.202
13,RRIRYRPPRLPRPRPRPHELPRP,-0.00663
14,RRIRVRPPRLPRPRPRPYFAPRP,-0.246
15,RRIRVRPPRLPRPRPRPPSWPRP,0.34
16,RRIRDRPPRLPRPRPRPKINPRP,-0.389
17,RRIRFRPPRLPRPRPRPFCWPRP,0.4
18,RRIRDRPPRLPRPRPRPVVDPRP,0.104
19,RRIRVRPPRLPRPRPRPHTHPRP,-0.414
20,RRIRMRPPRLPRPRPRPWESPRP,0.109
21,RRIRYRPPRLPRPRPRPKYTPRP,-0.415
22,RRIRDRPPRLPRPRPRPSQMPRP,0.0862
23,RRIRSRPPRLPRPRPRPFIKPRP,-0.275
24,RRIRYRPPRLPRPRPRPEMQPRP,0.057
25,RRIRKRPPRLPRPRPRPKKCPRP,0.405

row,Sequence,shrunken log2 fold change
1,RRIRIRPPRLPRPRPRPKWYPRP,-0.22
2,RRIRERPPRLPRPRPRPRFHPRP,-0.447
3,RRIRVRPPRLPRPRPRPCAGPRP,-0.106
4,RRIRFRPPRLPRPRPRPKSLPRP,0.0638
5,RRIRDRPPRLPRPRPRPYHRPRP,0.0231
6,RRIRVRPPRLPRPRPRPHKKPRP,-0.169
7,RRIRSRPPRLPRPRPRPGMAPRP,0.0998
8,RRIRDRPPRLPRPRPRPRGIPRP,-0.0372
9,RRIRCRPPRLPRPRPRPFATPRP,0.287
10,RRIRLRPPRLPRPRPRPNQDPRP,-0.0883
11,RRIRSRPPRLPRPRPRPGEEPRP,0.499
12,RRIRYRPPRLPRPRPRPTYCPRP,-0.165
13,RRIRCRPPRLPRPRPRPHWDPRP,-0.306
14,RRIRQRPPRLPRPRPRPWSSPRP,-0.0435
15,RRIRFRPPRLPRPRPRPYSEPRP,-0.297
16,RRIRARPPRLPRPRPRPWGTPRP,0.211
17,RRIRWRPPRLPRPRPRPGFLPRP,0.144
18,RRIRARPPRLPRPRPRPIGFPRP,-0.0732
19,RRIRNRPPRLPRPRPRPCWWPRP,0.0782
20,RRIRARPPRLPRPRPRPCMMPRP,-0.0864
21,RRIRRRPPRLPRPRPRPKTEPRP,0.452
22,RRIRCRPPRLPRPRPRPILYPRP,-0.716
23,RRIRIRPPRLPRPRPRPHERPRP,-0.169
24,RRIRRRPPRLPRPRPRPIYLPRP,-0.205
25,RRIRTRPPRLPRPRPRPVHKPRP,-0.285

row,Sequence,shrunken log2 fold change
1,RRIRVRPPRLPRPRPRPTKVPRP,-0.341
2,RRIRARPPRLPRPRPRPMGCPRP,0.495
3,RRIRVRPPRLPRPRPRPKCTPRP,-0.0595
4,RRIRHRPPRLPRPRPRPCAEPRP,-0.228
5,RRIRSRPPRLPRPRPRPFDEPRP,0.0719
6,RRIRFRPPRLPRPRPRPWMPPRP,-0.25
7,RRIRDRPPRLPRPRPRPITNPRP,-0.33
8,RRIRDRPPRLPRPRPRPNSPPRP,-0.0573
9,RRIRCRPPRLPRPRPRPTVRPRP,0.128
10,RRIRQRPPRLPRPRPRPVDCPRP,-0.013
11,RRIRTRPPRLPRPRPRPCPLPRP,-0.325
12,RRIRCRPPRLPRPRPRPQFHPRP,-0.635
13,RRIRHRPPRLPRPRPRPVQAPRP,0.00472
14,RRIRCRPPRLPRPRPRPEATPRP,0.95
15,RRIRTRPPRLPRPRPRPFCLPRP,-0.278
16,RRIRIRPPRLPRPRPRPVRTPRP,-0.0633
17,RRIRARPPRLPRPRPRPYTWPRP,-0.428
18,RRIRYRPPRLPRPRPRPFSGPRP,0.0211
19,RRIRARPPRLPRPRPRPLLNPRP,0.373
20,RRIRVRPPRLPRPRPRPIELPRP,-0.167
21,RRIRDRPPRLPRPRPRPSKNPRP,-0.106
22,RRIRHRPPRLPRPRPRPWLNPRP,-0.0017
23,RRIRCRPPRLPRPRPRPTQCPRP,0.0468
24,RRIRYRPPRLPRPRPRPAIQPRP,-0.316
25,RRIRKRPPRLPRPRPRPWIGPRP,0.0664
